Key:
[1] = target: SARS-CoV-2 RBD protein Avi-tag biotinylated (AcroBiosystems SPD-C82E9) (SARS-CoV-2, UniProt P0DTC2 330-518); test: competition AlphaLISA; competitor human ACE2-mFc; for % inhibition: test concentration or dose not given here
[2] = target: SARS-CoV-1 spike, full length, on cells or on pseudotyped virus (SARS-CoV-1, UniProt P59594 14-1255); test: cell-based or functional assay
[3] = target: T1, 2019-nCoV RBD (purified recombinant) (SARS-CoV-2, UniProt P0DTC2 330-518); test: SPR, His-tagged VHH on NTA chip, RBD as analyte
SARS-CoV RBD [4] = target: T2, SARS-CoV RBD (SARS-CoV-1, UniProt P59594 320-502); test: SPR, His-tagged VHH on NTA chip, RBD as analyte
[5] = target: T1, 2019-nCoV RBD (purified recombinant)
SARS-CoV RBD [6] = target: T2, SARS-CoV RBD
[7] = target: T3, SARS-CoV NTD (N-terminal domain) (SARS-CoV-1, UniProt P59594 14-276); test: ELISA, coated antigen
T3 sequence: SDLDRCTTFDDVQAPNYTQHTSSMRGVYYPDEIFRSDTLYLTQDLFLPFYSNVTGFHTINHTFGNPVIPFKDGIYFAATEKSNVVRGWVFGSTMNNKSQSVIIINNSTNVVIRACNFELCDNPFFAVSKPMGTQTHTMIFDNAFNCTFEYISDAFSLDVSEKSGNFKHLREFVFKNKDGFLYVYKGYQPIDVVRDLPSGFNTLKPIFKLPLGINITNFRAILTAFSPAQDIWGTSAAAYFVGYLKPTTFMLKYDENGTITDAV

B1: SARS VHH-72 (VHH)
VHH: QVQLQESGGGLVQAGGSLRLSCAASGRTFSEYAMGWFRQAPGKEREFVATISWSGGSTYYTDSVKGRFTISRDNAKNTVYLQMNSLKPDDTAVYYCAAAGLGTVVSEWDYDYDYWGQGTQVTVSS
% inhibition [1]: 97% | IC50 [1]: 26.7 nM | IC50, pseudotyped lentivirus neutralization, Huh7.5 cells, luciferase [2]: 0.14 µg/mL | Kd [3]: 38.7 nM | Kd (SARS-CoV RBD [4]): 1.15 nM | koff [5]: 3.13 s⁻¹ | kon [5]: 8.09e+07 M⁻¹ s⁻¹ | koff (SARS-CoV RBD [6]): 0.0033 s⁻¹ | kon (SARS-CoV RBD [6]): 2.86e+06 M⁻¹ s⁻¹ | binding result [7]: no binding

— US20230227537A1 (VIB VZW, published 2023)
